From patent US20260250370 come the findings set out here.

The data set has as its system TGFβ1 C4S Small Latent Complex (SLC).

Chain of TGFβ1 C4S Small Latent Complex (SLC) (chain, as listed by the source): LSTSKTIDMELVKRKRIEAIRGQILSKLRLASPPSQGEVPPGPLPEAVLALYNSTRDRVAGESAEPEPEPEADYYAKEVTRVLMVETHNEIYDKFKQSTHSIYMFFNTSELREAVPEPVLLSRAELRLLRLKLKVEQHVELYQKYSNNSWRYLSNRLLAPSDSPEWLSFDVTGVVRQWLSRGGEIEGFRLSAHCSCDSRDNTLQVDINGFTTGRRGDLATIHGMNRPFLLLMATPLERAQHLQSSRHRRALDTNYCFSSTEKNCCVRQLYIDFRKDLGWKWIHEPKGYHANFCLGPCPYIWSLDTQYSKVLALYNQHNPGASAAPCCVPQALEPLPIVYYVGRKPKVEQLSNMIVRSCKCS

Take kallikrein: the “kallikrein digestion of LAP (gel)” value was “LAP can be cleaved by kallikrein into a R^58 LAP-D fragment and a L^59 LAP-D fragment”.
